IC50 data for 14 molecules are collected here from patent EP2344531B1 (Danisco US Inc., dated 2014).

Assay [1] deals with T1, VEGF (vascular endothelial growth factor) (UniProt P15692-4 27-191, limits assumed, biotin label (Example 5)). Kind of assay: BioVeris ECL competition assay with a labeled competitor; legend: +++ = IC50 about 2 - 10 µM.
Assay [2] concerns the target T2, TGFβ1 (transforming growth factor β1) (UniProt P01137 279-390). Kind of assay: BioVeris ECL competition assay with a labeled competitor; legend: ++ = IC50 about 10 - 50 µM.
In assay [3] the target is T3, FGF-5 (fibroblast growth factor 5) (UniProt P12034 18-268, limits assumed).
T3 sequence (looked up): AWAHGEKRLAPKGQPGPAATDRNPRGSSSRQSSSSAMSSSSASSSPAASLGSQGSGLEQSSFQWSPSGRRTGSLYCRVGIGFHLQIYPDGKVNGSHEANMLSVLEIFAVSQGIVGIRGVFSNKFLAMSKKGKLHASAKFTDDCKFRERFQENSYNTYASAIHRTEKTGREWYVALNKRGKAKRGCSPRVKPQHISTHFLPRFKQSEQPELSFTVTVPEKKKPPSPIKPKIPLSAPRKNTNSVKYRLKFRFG
The description is as above.

Assay [4] has as its target T2, TGFβ1 (transforming growth factor β1). The assay can be described thus: BioVeris ECL competition assay with a labeled competitor; negative control.
For assay [5], the target named is T4, TNFα (tumor necrosis factor α) (UniProt P01375 77-233). The assay can be described thus: BioVeris ECL competition assay with a labeled competitor; legend: ++ = IC50 about 10 - 50 µM.
For assay [6], the target named is T1, VEGF (vascular endothelial growth …). The description is as above.
Assay [7] addresses T4, TNFα (tumor necrosis factor α). The assay can be described thus: BioVeris ECL competition assay with a labeled competitor; legend: + = IC50 about 50 - 250 µM.
Assay [8] has the same target. Kind of assay: BioVeris ECL competition assay with a labeled competitor; negative control.

T4 sequence (P01375 77-233 limits assumed): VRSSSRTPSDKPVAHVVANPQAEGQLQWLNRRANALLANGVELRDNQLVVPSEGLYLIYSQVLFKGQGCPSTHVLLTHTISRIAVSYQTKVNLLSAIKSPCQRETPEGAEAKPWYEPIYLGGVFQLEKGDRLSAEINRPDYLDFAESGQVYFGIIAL
T2 sequence (P01137 279-390 limits assumed): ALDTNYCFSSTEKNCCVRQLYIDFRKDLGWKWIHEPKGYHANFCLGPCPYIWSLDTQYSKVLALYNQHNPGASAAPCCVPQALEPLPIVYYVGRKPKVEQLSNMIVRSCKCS
T1 sequence (P15692 other isoform, or with tags, fused parts or gaps limits assumed): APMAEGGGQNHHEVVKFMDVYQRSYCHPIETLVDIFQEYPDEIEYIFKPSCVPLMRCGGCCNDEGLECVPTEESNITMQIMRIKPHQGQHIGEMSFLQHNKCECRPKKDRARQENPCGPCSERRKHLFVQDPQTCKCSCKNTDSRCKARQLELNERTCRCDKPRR

B1: VegKD-Q (BBIt-A13I-S25K-L29P-V52K with the VEGF-binding peptide VegKD KYDLYWW) (designed binder)
chain: DPDDESSKPCCDQCICTKSNPPQCRCKDMRPNSCHSACKSCICKYDLYWWCFCKDITDFCYEPCKPSE
Usually IC50 stands for the concentration at which inhibition is half-maximal. Regarding B1, in assay [1], the IC50 fell in the range of 2 to 10 µM.

B2: PEN3-Q-BBIt-TGF (BBIt-A13I-L29P-F50T-V52A with the TGFβ1 binding peptide PEN3 PENINVLP) (designed binder)
chain: DPDDESSKPCCDQCICTKSNPPQCRCSDMRPNSCHSACKSCACPENINVLPCTCADITDFCYEPCKPSE
notes: also called PEN3-Q-BBIt-TGFβ1; BBIt-PEN3-Q-A13I-L29P-F50T-V52A
Molecule B2 returned an IC50 in assay [2] of 10 to 50 µM.

B3: MM007-Q-BBIt-FGF-5 (BBIt-A13I-L29P-F50T-V52A with the FGF-5 binding peptide MM007 RTQPYPL) (designed binder)
chain: DPDDESSKPCCDQCICTKSNPPQCRCSDMRPNSCHSACKSCACRTQPYPLCTCADITDFCYEPCKPSE
notes: also called BBIt-MM007-Q-A13I-L29P-F50T-V52A
Consider B3, for which the IC50 in assay [3] lay within 10 to 50 µM.

B4: MM021W-Q-BBIt-TGF (BBIt-A13I-L29P-F50T-V52A with the TGFβ1 binding peptide MM021W KHNVDWL) (designed binder)
chain: DPDDESSKPCCDQCICTKSNPPQCRCSDMRPNSCHSACKSCACKHNVDWLCTCADITDFCYEPCKPSE
notes: also called MM021W-Q-BBIt-TGFβ1; BBIt-MM021W-Q-A13I-L29P-F50T-V52A
In the case of B4, the IC50 in assay [2] lay within 10 to 50 µM.

B5: FGFps2-Q-BBIt-FGF-5 (BBIt-A13I-L29P-F50T-V52A with the FGF-5 binding peptide FGFps2 TWIDSTP) (designed binder)
chain: DPDDESSKPCCDQCICTKSNPPQCRCSDMRPNSCHSACKSCACTWIDSTPCTCADITDFCYEPCKPSE
notes: also called BBIt-FGFps2-Q-A13I-L29P-F50T-V52A
On to B5, for which the IC50 in assay [4] is greater than 250 µM; in assay [3], 10 to 50 µM.

B6: BBIt-TNF-T1 (BBIt-TNFα-T1-A13I-S25R-M27A-L29P-S31A-F50K-V52T, peptide RYWQDIP) (designed binder)
chain: DPDDESSKPCCDQCICTKSNPPQCRCRDARPNACHSACKSCACRYWQDIPCKCTDITDFCYEPCKPSE
B6 gave an IC50 in assay [5] of 10 to 50 µM.

B7: BBIt-AV-V5 (BBIt-VEGF-V5-A13I-S25R-M27A-L29P-S31A-F50K-V52T, peptide KPSSASS) (designed binder)
chain: DPDDESSKPCCDQCICTKSNPPQCRCRDARPNACHSACKSCACKPSSASSCKCTDITDFCYEPCKPSE
As for B7, the IC50 in assay [6] fell in the range of 10 to 50 µM.

B8: BBIt-TNF-T2 (BBIt-TNFα-T2-A13I-S25R-M27A-L29P-S31A-F50K-V52T, peptide APEPILA) (designed binder)
chain: DPDDESSKPCCDQCICTKSNPPQCRCRDARPNACHSACKSCACAPEPILACKCTDITDFCYEPCKPSE
Regarding B8, the IC50 in assay [7] fell in the range of 50 to 250 µM.

B9: BBIt-TNF-T3 (BBIt-TNFα-T3-A13I-S25R-M27A-L29P-S31A-F50K-V52T, peptide DMIMVSI) (designed binder)
chain: DPDDESSKPCCDQCICTKSNPPQCRCRDARPNACHSACKSCACDMIMVSICKCTDITDFCYEPCKPSE
notes: the listing entry must be checked
As to B9, the IC50 in assay [7] lay in the range of 50 to 250 µM.

B10: BBIt-AV-V4 (BBIt-VEGF-V4-A13I-S25R-M27A-L29P-S31A-F50K-V52T, peptide KHSAKAE) (designed binder)
chain: DPDDESSKPCCDQCICTKSNPPQCRCRDARPNACHSACKSCACKHSAKAECKCTDITDFCYEPCKPSE
In assay [1], B10 had an IC50 of 2 to 10 µM.

B11: BBIt-AV-V6 (BBIt-VEGF-V6-A13I-S25R-M27A-L29P-S31A-F50K-V52T, peptide PVTKRVH) (designed binder)
chain: DPDDESSKPCCDQCICTKSNPPQCRCRDARPNACHSACKSCACPVTKRVHCKCTDITDFCYEPCKPSE
B11 yielded an IC50 in assay [1] of 2 to 10 µM.

B12: BBIt-AV-V1 (BBIt-VEGF-V1-A13I-S25R-M27A-L29P-S31A-F50K-V52T, peptide SKHSQIT) (designed binder)
chain: DPDDESSKPCCDQCICTKSNPPQCRCRDARPNACHSACKSCACSKHSQITCKCTDITDFCYEPCKPSE
Consider B12, for which the IC50 was greater than 250 µM in assay [8] and 10 to 50 µM in assay [6].

B13: BBIt-AV-V2 (BBIt-VEGF-V2-A13I-S25R-M27A-L29P-S31A-F50K-V52T, peptide KTNPSGS) (designed binder)
chain: DPDDESSKPCCDQCICTKSNPPQCRCRDARPNACHSACKSCACKTNPSGSCKCTDITDFCYEPCKPSE
In the case of B13, in assay [1], the IC50 was 2 to 10 µM.

B14: BBIt-AV-V3 (BBIt-VEGF-V3-A13I-S25R-M27A-L29P-S31A-F50K-V52T, peptide RPTGHSL) (designed binder)
chain: DPDDESSKPCCDQCICTKSNPPQCRCRDARPNACHSACKSCACRPTGHSLCKCTDITDFCYEPCKPSE
In the case of B14, in assay [6], the IC50 was 10 to 50 µM.
